Square brackets hold non-standard residues; d marks the D form. Peptide text beside a SMILES is read from it. Nle = CCCC[C@H](N)C(=O)O
Tests used:
HeLa cells = assay type: cell-based, human; conditions: 5 hour
Fas/Apo-1 ligand = biological target: T1, Fas/Apo-1 ligand (Homo sapiens, UniProt P48023); experiment: BIACORE analysis of purified Apo-2 ECD; assay type: binding
T1 construct: purchased Alexis Biochemicals
T1 sequence (P48023 103-281 limits assumed): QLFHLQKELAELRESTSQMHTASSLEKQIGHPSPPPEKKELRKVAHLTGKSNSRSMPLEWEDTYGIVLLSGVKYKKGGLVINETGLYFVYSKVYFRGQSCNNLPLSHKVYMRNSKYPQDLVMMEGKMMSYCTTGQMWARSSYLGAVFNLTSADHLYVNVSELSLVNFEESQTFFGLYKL
Source text: (§1) The binding interaction was further analyzed by purifying Apo-2 ECD from the transfected 293 cell supernatants with anti-Flag beads (see Example 2) and then analyzing the samples on a BIACORE™ instrument.

lymphotoxin-alpha = biological target: T2, lymphotoxin-alpha (Homo sapiens, UniProt P01374); experiment: BIACORE analysis of purified Apo-2 ECD; assay type: binding
T2 sequence (P01374 35-205): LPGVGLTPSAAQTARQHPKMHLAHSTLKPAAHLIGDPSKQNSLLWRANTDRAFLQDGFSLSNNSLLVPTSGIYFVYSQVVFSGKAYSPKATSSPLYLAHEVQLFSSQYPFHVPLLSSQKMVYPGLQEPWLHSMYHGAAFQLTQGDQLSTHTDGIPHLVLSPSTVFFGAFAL
Source text: as §1

TNF-alpha = TNF-alpha (Homo sapiens, UniProt P01375); experiment: BIACORE analysis of purified Apo-2 ECD; assay type: binding
Sequence of TNF-alpha (P01375 77-233 limits assumed): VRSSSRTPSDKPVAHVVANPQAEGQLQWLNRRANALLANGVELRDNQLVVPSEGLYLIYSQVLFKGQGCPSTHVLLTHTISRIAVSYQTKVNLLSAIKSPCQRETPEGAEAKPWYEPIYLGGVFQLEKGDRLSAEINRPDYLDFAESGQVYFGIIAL
Source text: as §1

Apo-2L [1] = biological target: T3, Apo-2L (Homo sapiens, UniProt P50591); experiment: Co-precipitation (immunoprecipitation) assay of Apo-2 ECD-Flag with His-tagged Apo-2L; assay type: binding; conditions: 293 cell supernatant with Apo-2 ECD-Flag, 5 μg poly-histidine-tagged soluble Apo-2L; FIG. 3
T3 construct: poly-histidine; made in house
Experimental: The samples were subjected to immunoprecipitation using 25 μl anti-Flag conjugated agarose beads (Sigma) or Nickel-conjugated agarose beads (Qiagen). After a 1.5 hour incubation at 4° C., the beads were spun down and washed four times in phosphate buffered saline (PBS). […] The precipitated proteins were released by boiling the beads for 5 minutes in SDS-PAGE buffer, resolved by electrophoresis on 12% polyacrylamide gels, and then detected by immunoblot with anti-Apo-2L or anti-Flag antibody (2 μg/ml) as described in Marsters et al., J. Biol. Chem., (1997).
Target sequence in this assay (P50591 39-281 limits assumed): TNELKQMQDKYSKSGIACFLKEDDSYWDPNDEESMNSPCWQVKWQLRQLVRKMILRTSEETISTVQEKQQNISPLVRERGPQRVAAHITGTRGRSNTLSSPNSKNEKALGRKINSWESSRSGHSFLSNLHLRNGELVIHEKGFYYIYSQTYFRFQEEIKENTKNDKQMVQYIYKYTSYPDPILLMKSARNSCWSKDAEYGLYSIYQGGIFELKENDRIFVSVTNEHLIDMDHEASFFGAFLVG

Apo-2L [2] = biological target: T3, Apo-2L; experiment: Inhibition of Apo-2L activity by soluble Apo-2 ECD, apoptosis by FACS; assay type: cell-based; conditions: Apo-2L 0.5 μg/ml pre-incubated 1 hour; Apo-2 ECD 5 μg/ml with anti-Flag antibody 1 μg/ml; FIG. 4D
Experimental: After a 5 hour incubation, the cells were analyzed for apoptosis by FACS (as above) (FIG. 4D).
Target sequence in this assay (P50591 114-281 limits assumed): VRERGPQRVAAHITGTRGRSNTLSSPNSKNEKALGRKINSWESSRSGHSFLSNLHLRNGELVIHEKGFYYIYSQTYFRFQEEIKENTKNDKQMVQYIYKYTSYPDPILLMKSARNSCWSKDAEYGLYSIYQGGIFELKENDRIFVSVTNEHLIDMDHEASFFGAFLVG

[3] = test system: HeLa cells transfected with Apo-2; assay type: cell-based, human

Compound: CCCC[C@@H](C=O)NC(=O)[C@H](CC(C)C)NC(=O)[C@H](CC(C)C)NC(C)=O [ALLN, N-acetyl-Leu-Leu-norleucinal] (Ac-Leu-Leu-[Nle]-aldehyde)
- effect on level of Apo-2L-induced apoptosis (HeLa cells): increased the level of Apo-2L-induced apoptosis

Compound: Apo-2 ECD: Soluble Apo-2 extracellular domain (amino acid residues 1-184 of FIG. 1) fused to a C-terminal Flag epitope tag
- binding to Fas/Apo-1 ligand (Fas/Apo-1 ligand): not capable of binding
- binding to lymphotoxin-alpha (lymphotoxin-alpha): not capable of binding
- binding to TNF-alpha (TNF-alpha): not capable of binding
- complex formation with Apo-2L by co-precipitation (Apo-2L [1]): can associate with each other
- blocking of Apo-2L action (apoptosis in HeLa cells) (Apo-2L [2]): capable of blocking Apo-2L action

Compound: DEVD-fmk
- effect on apoptosis induction by Apo-2 [3]: blocked apoptosis induction by Apo-2

Compound: cyclohexamide
- effect on level of Apo-2L-induced apoptosis (HeLa cells): increased the level of Apo-2L-induced apoptosis

Compound: z-VAD-fmk
- effect on apoptosis induction by Apo-2 [3]: blocked apoptosis induction by Apo-2

Reference: US7939631B2, “APO-2 receptor polypeptides” (Genentech, Inc., priority 1997, dated 2011)
